According to patent publication US20080057519A1:

Key:
[1] = target: FLJ32028 with an HA epitope tag fused to the predicted C-terminal end of the protein (human) (UniProt Q6P9G4); experiment: flow cytometry on intact transfected 293-EBNA cells, streptavidin-PE detection
[2] = target: FLJ32028 with an HA epitope tag inserted at the predicted N-terminal end of the protein (human) (UniProt Q6P9G4); experiment: as above

% of transfected GFP+ cells negative for HA [1]: 85%
% of transfected GFP+ cells positive for HA [2]: > 99%
Substance: biotinylated Rat Anti-HA antibody (Roche)
